The source of these data is patent US20040220079A1 (OKLAHOMA MEDICAL RESEARCH FOUNDATION, published 2004).

A word on the Ki: it is a measure of affinity in units of concentration, obtained from inhibition or displacement.

No end group written: not given here.

The target in test [1] is T1, recombinant memapsin 2 (human, UniProt P56817 14-454, limits assumed).
T1 construct: also called M2; beta-secretase
Description: inhibition constant quoted in the crystallisation example.

For test [2], the target named is T1, recombinant memapsin 2. Description: enzyme inhibition with a synthetic fluorogenic peptide substrate.
Test [3] addresses T1, recombinant memapsin 2. Description: comparison of inhibition constants with and without P4 Glu.

T1 sequence (P56817 14-454 limits assumed): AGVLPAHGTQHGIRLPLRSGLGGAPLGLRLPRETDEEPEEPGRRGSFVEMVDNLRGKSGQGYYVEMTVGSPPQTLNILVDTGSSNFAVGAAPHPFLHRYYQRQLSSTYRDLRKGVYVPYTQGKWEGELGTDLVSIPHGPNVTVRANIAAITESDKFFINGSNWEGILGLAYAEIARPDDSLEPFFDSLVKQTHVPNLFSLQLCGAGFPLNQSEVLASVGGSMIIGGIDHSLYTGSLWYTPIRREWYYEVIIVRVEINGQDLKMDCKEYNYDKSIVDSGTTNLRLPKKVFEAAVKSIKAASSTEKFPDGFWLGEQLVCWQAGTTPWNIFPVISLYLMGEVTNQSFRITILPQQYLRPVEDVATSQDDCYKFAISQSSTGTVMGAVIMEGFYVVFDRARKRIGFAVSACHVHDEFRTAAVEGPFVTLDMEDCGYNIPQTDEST

B1: OM99-2 (peptide)
peptide: EVNLAAEF
modifications: also: Leu-Ala peptide bond replaced by hydroxyethylene isostere -CH(OH)-CH2- (Leu*Ala)
As for B1, the Ki in test [1] worked out at 10 nM.

B2: OM99-1 (peptide)
peptide: VNLAAEF
modifications: also: Leu-Ala peptide bond replaced by hydroxyethylene isostere -CH(OH)-CH2-
notes: also called OMR99-1; Val-Asn-Leu*Ala-Ala-Glu-Phe
Regarding B2, the Ki in test [2] turned out to be 30 nM. Besides, the “fold increase in Ki against OM99-2” value in test [3] was found to be 10 fold.
